In data set [1] the test system is Isw1a complex (TAP-purified via Ioc3-TAP, strain YTT1168) (yeast, strain YTT1168). In words: magnetic tweezers. The conditions noted are these: no ATP, end-tethered to glass and bead (1 um), TEM/EMSA: 20 mM (Methods: 10 mM) Tris-HCl pH 8.0, 30 mM KCl, 17.5 mM NaCl, 1 mM Hepes pH 7.6, 0.75% glycerol, 20 min at 30 C, 750 nM DNA in bp, CHD1 tweezers: …. Background: Mobility shift assays separate free from complexed probe on a gel.

The test system is the same in data set [2]. In words: TEM. The note with it: no ATP, TEM/EMSA: 20 mM (Methods: 10 mM) Tris-HCl pH 8.0, 30 mM KCl, 17.5 mM NaCl, 1 mM Hepes pH 7.6, 0.75% glycerol, 20 min at 30 C, 750 nM DNA in bp, CHD1 tweezers: ….
Data set [3] shares this test system. As to the kind of experiment: TEM, competition. The conditions noted are these: TEM/EMSA: 20 mM (Methods: 10 mM) Tris-HCl pH 8.0, 30 mM KCl, 17.5 mM NaCl, 1 mM Hepes pH 7.6, 0.75% glycerol, 20 min at 30 C, 750 nM DNA in bp, CHD1 tweezers: ….

pKd: −log10 of the molar value.

Broadly, the pKd is the Kd on a negative log10 scale, so that one unit is a factor of ten.

With 3.6 kbp tethered DNA (magnetic trap), the negative logarithm of the Kd (pKd) in data set [1] (F about 1 pN, tau_on 64 s, tau_off 69 s) is 9.00; in data set [1] (extrapolated to zero force, single nucleation complex) it was 12.00.

As for “linear pBR322 EcoRV-SspI fragment, 3983 bp”, the binding signal (% unbound DNA) in data set [2] (2 nM Isw1a) was 82; in data set [2] (10 nM Isw1a), 53; in data set [2] (50 nM Isw1a), 20; in data set [3] (2 nM Isw1a, 1:1 mixture with scDNA), 90; in data set [3] (10 nM Isw1a, 1:1 mixture with scDNA), 73; in data set [3] (50 nM Isw1a, 1:1 mixture with scDNA) it was 25.

In the case of pBR322 negatively supercoiled plasmid, the binding signal (% unbound DNA) in data set [2] (2 nM Isw1a) was 57; in data set [2] (10 nM Isw1a) it was 37; in data set [2] (50 nM Isw1a), 10; in data set [3] (2 nM Isw1a, 1:1 mixture with linear DNA) it was 59; in data set [3] (10 nM Isw1a, 1:1 mixture with linear DNA) it was 33; in data set [3] (50 nM Isw1a, 1:1 mixture with linear DNA) it was 6.

Values taken from PMC3281020.
